PMC5722929

Target: AMPA glutamate receptor subunit GluA1 (mouse (endogenous in primary hippocampal neurons)) (UniProt P23818)
Assay: co-IP; endogenous proteins in lysates of hippocampal neurons treated with vehicle (CTR) or IPA (insulin 20 nM + palmitic acid 0.2 mM); IP buffer KCl 50 mM, Tris-HCl 50 mM pH 8, EDTA 10 mM, 1% Nonidet P-40; specific antibody or IgG (negative control) with protein G-sepharose 4B, 6 h at 4 °C; six washes; immunoblot

Chain of UniProt P23818 (P23818 19-907): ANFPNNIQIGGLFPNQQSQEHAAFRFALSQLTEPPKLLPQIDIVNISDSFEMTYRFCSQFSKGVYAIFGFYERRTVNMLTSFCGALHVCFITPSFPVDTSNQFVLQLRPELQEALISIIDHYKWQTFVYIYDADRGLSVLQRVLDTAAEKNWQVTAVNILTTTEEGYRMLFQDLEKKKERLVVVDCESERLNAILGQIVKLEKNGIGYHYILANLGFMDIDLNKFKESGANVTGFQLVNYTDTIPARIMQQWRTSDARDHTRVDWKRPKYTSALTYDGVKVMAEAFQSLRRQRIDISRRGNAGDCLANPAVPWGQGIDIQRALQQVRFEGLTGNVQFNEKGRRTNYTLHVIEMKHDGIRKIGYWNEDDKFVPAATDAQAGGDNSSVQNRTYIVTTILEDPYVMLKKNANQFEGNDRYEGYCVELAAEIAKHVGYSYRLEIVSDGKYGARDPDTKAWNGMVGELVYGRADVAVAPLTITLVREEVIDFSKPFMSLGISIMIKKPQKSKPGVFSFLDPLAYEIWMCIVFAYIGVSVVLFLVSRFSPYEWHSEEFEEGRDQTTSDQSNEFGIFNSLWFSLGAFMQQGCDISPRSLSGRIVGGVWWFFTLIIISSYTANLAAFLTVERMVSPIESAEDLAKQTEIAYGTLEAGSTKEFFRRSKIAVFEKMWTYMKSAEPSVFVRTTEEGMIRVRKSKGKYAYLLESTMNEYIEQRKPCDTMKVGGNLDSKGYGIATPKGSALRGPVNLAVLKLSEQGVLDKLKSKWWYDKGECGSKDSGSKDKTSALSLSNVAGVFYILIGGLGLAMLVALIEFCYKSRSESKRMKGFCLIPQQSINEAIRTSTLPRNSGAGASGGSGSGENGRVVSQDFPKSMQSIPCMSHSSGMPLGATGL

## actin (from UniProt P60710 1-375) (natural protein)
  change of the co-precipitated amount after IPA against vehicle control: -74%
